Measured values as given in paper PMC3246216 (2012).

Key:
Assay in all cases: ITC
Gcn4 101-134 [1] = molecular target: T1, Gcn4 101-134 (Saccharomyces cerevisiae, UniProt P03069)
T1 chain: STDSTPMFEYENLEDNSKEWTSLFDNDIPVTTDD

Gcn4 101-134 [2] = molecular target: T2, Gcn4 101-134 (Saccharomyces cerevisiae, UniProt P03069)
T2 chain: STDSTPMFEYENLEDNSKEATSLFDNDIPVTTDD

Gcn4 101-134 [3] = molecular target: T3, Gcn4 101-134 (Saccharomyces cerevisiae, UniProt P03069)
T3 chain: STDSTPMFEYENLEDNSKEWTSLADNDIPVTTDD

Row | Binder | Kd (Gcn4 101-134 [1]) [µM] | Kd (Gcn4 101-134 [2]) [µM] | Kd (Gcn4 101-134 [3]) [µM]
1 | Gal11/Med15 158-238 (protein) QRRQLTPQQQQLVNQMKVAPIPKQLLQRIPNIPPNINTWQQVTALAQQKLLTPQDMEAAKEVYKIHQQLLFKARLQQQQAQ | 10.1 | 56 | 65
2 | Gal11/Med15 158-238 (protein) QRRQLTPQQQQLVNQMKVAPIPKQLLQRIPNIPPNINTWQQVTALAQQKLLTPQDAEAAKEVYKIHQQLLFKARLQQQQAQ | 76 | – | –
